Data as given in US20130243795A1 (Janssen / Centocor, published 2013).
Substitutions are numbered along the chain they refer to. Read-outs that look alike come from different tables or passages of the source. Blank lines part the entries; values can stand above or below the binder they belong to.

Tests used:
[1] = biological target: T1, Human CD27 ECD truncated (ECD 1-121, cleavage site, His6) (human); assay: ProteOn SPR, culture supernatants
T1 construct: also called human CD27 ECD with His Tag; CD27-His
T1 chain: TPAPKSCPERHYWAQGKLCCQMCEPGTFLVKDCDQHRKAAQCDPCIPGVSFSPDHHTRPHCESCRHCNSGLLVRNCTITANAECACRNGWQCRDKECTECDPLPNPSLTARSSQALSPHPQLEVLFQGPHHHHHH

[2] = biological target: T2, Human CD27 ECD, monomeric soluble (construct limits not stated) (human, UniProt P26842 20-191); assay: Biacore SPR, purified mAb, CD27-His
T2 construct: extracellular domain; target of the Biacore assays; also called monomeric soluble CD27; CD27-His
T2 sequence (P26842 20-191): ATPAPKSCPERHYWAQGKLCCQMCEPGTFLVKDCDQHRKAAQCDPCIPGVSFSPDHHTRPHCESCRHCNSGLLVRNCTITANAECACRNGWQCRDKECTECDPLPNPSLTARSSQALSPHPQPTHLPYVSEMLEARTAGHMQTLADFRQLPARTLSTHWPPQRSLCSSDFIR

[3] = biological target: T1, Human CD27 ECD truncated (ECD 1-121, …); assay: ProteOn SPR, purified mAb, CD27-His
[4] = biological target: T1, Human CD27 ECD truncated (ECD 1-121, …); assay: ProteOn SPR, culture supernatants
[5] = biological target: T1, Human CD27 ECD truncated (ECD 1-121, …); assay: ProteOn SPR, culture supernatants
[6] = biological target: T2, Human CD27 ECD, monomeric soluble …; assay: Biacore SPR, purified mAb
[7] = biological target: T3, Human CD27, full length on the cell surface (human, UniProt P26842 21-260); assay: cell-based or functional assay
T3 sequence (P26842 21-260 H233R): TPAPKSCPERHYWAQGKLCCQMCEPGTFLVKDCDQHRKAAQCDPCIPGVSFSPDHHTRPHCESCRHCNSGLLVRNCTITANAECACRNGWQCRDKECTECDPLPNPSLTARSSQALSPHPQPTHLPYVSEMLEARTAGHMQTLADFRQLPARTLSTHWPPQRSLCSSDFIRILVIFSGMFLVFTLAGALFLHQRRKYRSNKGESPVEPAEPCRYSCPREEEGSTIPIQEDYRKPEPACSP

[8] = biological target: T2, Human CD27 ECD, monomeric soluble …; assay: Biacore SPR, purified mAb, CD27 ECD
[9] = biological target: T1, Human CD27 ECD truncated (ECD 1-121, …); assay: ELISA signal for binding to CD27, initial small culture supernatants
[10] = biological target: T3, Human CD27, full length on the cell …; assay: cell-based or functional assay; remark: listed apart in the source
[11] = biological target: T3, Human CD27, full length on the cell …; assay: cell-based or functional assay; remark: listed apart in the source
[12] = biological target: T2, Human CD27 ECD, monomeric soluble …; assay: Biacore SPR, purified mAb; remark: listed apart in the source

Kd [1]: 0.12 nM
Kd [2]: 0.117 nM
koff [2]: 0.00018 s⁻¹
kon [2]: 1.6e+06 M⁻¹ s⁻¹
Kd [3]: 0.108 nM
koff [3]: 0.000223 s⁻¹
kon [3]: 2.07e+06 M⁻¹ s⁻¹
fold decrease in KD against the parental mAb M159 [4]: 20 fold
B1: M160 (antibody, human IgG4, V domains shown)
VH: QVQLVQSGAEVKKPGASVKVSCKASGYAFSSSWMNWVRQAPGQGLEWMGRIYSGDGDTNYNGKFKGRVTMTRDTSTSTVYMELSSLRSEDTAVYYCARSDYYGDYGFAYWGQGTLVTVSS
VL: DIQMTQSPSSLSASVGDRVTITCKASQSVDYAGDSFMNWYQQKPGKAPKLLIYAASNLESGVPSRFSGSGSGTDFTLTISSLQPEDFATYYCQQSNEDPYTFGQGTKVEIK
notes: also called H196,L219

Kd [1]: 0.36 nM
Kd [2]: 0.439 nM
koff [2]: 0.00066 s⁻¹
kon [2]: 1.5e+06 M⁻¹ s⁻¹
fold decrease in KD against the parental mAb M159 [4]: 6 fold
B2: M158 (antibody, human IgG4, V domains shown)
VH: B1 VH
VL: B1 VL with F36Y
notes: also called H196,L220

Kd [1]: 0.37 nM
fold decrease in KD against the parental mAb M159 [4]: 6 fold
B3: M155 (antibody, human IgG4, V domains shown)
VH: B1 VH with S53P
VL: B1 VL with G33H, D34E
notes: also called H25,L217

Kd [1]: 0.54 nM
fold decrease in KD against the parental mAb M159 [4]: 4 fold
B4: M149 (antibody, human IgG4, V domains shown)
VH: B1 VH with S53P
VL: B1 VL
notes: also called H25,L219

Kd [1]: 0.39 nM
fold decrease in KD against the parental mAb M159 [4]: 6 fold
B5: M157 (antibody, human IgG4, V domains shown)
VH: B1 VH with S53Q
VL: B1 VL with F36Y
notes: also called H197,L220

Kd [1]: 0.1 nM
Kd [2]: 0.126 nM
koff [2]: 0.000203 s⁻¹
kon [2]: 1.62e+06 M⁻¹ s⁻¹
Kd [3]: 0.127 nM
koff [3]: 0.000234 s⁻¹
kon [3]: 1.84e+06 M⁻¹ s⁻¹
fold decrease in KD against the parental mAb M159 [4]: 20 fold
B6: M166 (antibody, human IgG4, V domains shown)
VH: B1 VH
VL: B1 VL with G33H, D34E
notes: also called H196,L217

Kd [5]: 0.025 nM
B7: M596 (antibody, V domains shown)
VH: EVQLVQSGAEVKKPGESLKISCKGSGYAFSSSWMNWVRQMPGKGLEWMGRIYAGDGDTNYSPSFQGQVTISADKSISTAYLQWSSLKASDTAMYYCARSDYYGDYGFAYWGQGTLVTVSS
VL: DIVMTQSPDSLAVSLGERATINCKASQSVDYAGDSWMNWYQQKPGQPPKLLIYTASNLESGVPDRFSGSGSGTDFTLTISSLLAEDVAVYYCQQSNEDPYTFGQGTKLEIK
notes: IgG; subclass not restated (path 1 mAbs were human IgG1/kappa); also called H239/L257

Kd [6]: 0.026 nM
koff [6]: 5.89e-05 s⁻¹
kon [6]: 2.3e+06 M⁻¹ s⁻¹
NF-kB Assay IC50 [7]: 0.272 nM
B8: M709 (antibody, V domains shown)
VH: B7 VH with G56A, N59A
VL: B7 VL with D34E, W36F, T54A, L83Q
notes: also called single-gene DNA ID 709

Kd [5]: 0.03 nM
B9: M680 (antibody, V domains shown)
VH: B7 VH with S61A
VL: B7 VL with W36F, T54A, L83Q
notes: IgG; subclass not restated; also called H260/L255

Kd [5]: 0.013 nM
B10: M706 (antibody, V domains shown)
VH: B7 VH with G56A, S61A
VL: B7 VL with D34E, W36F, T54A, L83Q
notes: IgG; subclass not restated; also called H272/L267

Kd [6]: 0.019 nM
koff [6]: 4.88e-05 s⁻¹
kon [6]: 2.55e+06 M⁻¹ s⁻¹
NF-kB Assay IC50 [7]: 0.32 nM
B11: M710 (antibody, V domains shown)
VH: B7 VH with G56A, S61A
VL: B7 VL with D34E, W36F, T54A, L83Q
notes: also called single-gene DNA ID 710

Kd [5]: 0.028 nM
B12: M703 (antibody, V domains shown)
VH: B7 VH with G56A, N59A
VL: B7 VL with D34E, W36F, T54A, L83Q
notes: IgG; subclass not restated; also called H270/L267

Kd [5]: 0.053 nM
B13: M678 (antibody, V domains shown)
VH: B7 VH with N59A
VL: B7 VL with W36F, T54A, L83Q
notes: IgG; subclass not restated; also called H259/L255

Kd [5]: 0.049 nM
B14: M600 (antibody, V domains shown)
VH: B7 VH
VL: B7 VL with W36F, T54A, L83Q
notes: IgG; subclass not restated; also called H239/L255

Kd [8]: 0.0417 nM
ELISA signal [9]: 0.93
NFkB IC50 [10]: 0.019 nM
B15: M427 (antibody, IgG1, V domains shown)
VH: QVQLVESGGGLVKPGGSLRLSCAASGFTFSSYGMSWIRQAPGKGLEWVSYIDEGGGQTIYPDSVKGRFTISRDNAKNSLYLQMNSLRAEDTAVYYCARHRGNPFDYWGQGTLVTVSS
VL: DIQMTQSPSSLSASVGDRVTITCRASKSVSAWGYSFMHWYQQKPGKAPKLLIYVASRLESGVPSRFSGSGSGTDFTFTISSLQPEDIATYYCQHSRELPWTFGQGTKVEIK
notes: also called H227/L244; C27H227/C27L244

NF-kB Assay IC50 [11]: 0.42 nM
Kd [12]: 0.105 nM
koff [12]: 7.6e-05 s⁻¹
kon [12]: 480000 M⁻¹ s⁻¹
B16: M694 (antibody, V domains shown)
VH: B15 VH
VL: B15 VL with A31E, W32G, G33R, Y34W
notes: also called single-gene DNA ID 694

NF-kB Assay IC50 [11]: 0.26 nM
Kd [12]: 0.213 nM
koff [12]: 0.000124 s⁻¹
kon [12]: 585000 M⁻¹ s⁻¹
B17: M707 (antibody, V domains shown)
VH: B15 VH with Q1E, V5L, K13Q, G33T, I37V, Y50A, E53H, I59L, A75S, S78T
VL: B15 VL with A31H, W32V, G33R, Y34W, V54L, R57N, F77L, I87F
notes: also called single-gene DNA ID 707

Kd [8]: 0.142 nM
ELISA signal [9]: 0.77
NFkB IC50 [10]: 0.015 nM
B18: M492 (antibody, IgG1, V domains shown)
VH: B15 VH with G33S, E53A, Q57F
VL: B15 VL with A31E, W32G, G33R, Y34W
notes: also called H228/L249

Kd [8]: 0.145 nM
ELISA signal [9]: 0.85
NFkB IC50 [10]: 0.014 nM
B19: M493 (antibody, IgG1, V domains shown)
VH: B15 VH with G33S, E53A, Q57F
VL: B15 VL with A31L, W32D, G33R, Y34W, V54L, R57N
notes: also called H228/L250

NF-kB Assay IC50 [11]: 0.33 nM
Kd [12]: 0.057 nM
koff [12]: 2.1e-05 s⁻¹
kon [12]: 370000 M⁻¹ s⁻¹
B20: M696 (antibody, V domains shown)
VH: B15 VH
VL: B15 VL with A31H, W32V, G33R, Y34W, V54L, R57K
notes: also called single-gene DNA ID 696

Kd [8]: 0.0742 nM
ELISA signal [9]: 0.77
NFkB IC50 [10]: 0.004 nM
B21: M501 (antibody, IgG1, V domains shown)
VH: B15 VH with G33S, Y50H, E53A, Q57R, I59W
VL: B15 VL with A31L, W32D, G33R, Y34W, V54L, R57N
notes: also called H231/L250

NF-kB Assay IC50 [11]: 0.26 nM
Kd [12]: 0.35 nM
koff [12]: 0.000225 s⁻¹
kon [12]: 643000 M⁻¹ s⁻¹
B22: M708 (antibody, V domains shown)
VH: EVQLLESGGGLVQPGGSLRLSCAASGFTFSSYTMSWVRQAPGKGLEWVSVIDHGGGSTHYPDSVKGRFTISRDNSKNTLYLQMNSLRAEDTAVYYCARHRGNPFDYWGQGTLVTVSS
VL: B15 VL with A31T, W32S, A55G, E59D, S60Y, F77L, I87F
notes: also called single-gene DNA ID 708

NF-kB Assay IC50 [11]: 0.25 nM
Kd [12]: 0.202 nM
koff [12]: 0.00017 s⁻¹
kon [12]: 510000 M⁻¹ s⁻¹
B23: M695 (antibody, V domains shown)
VH: B15 VH with G33S, E53A, Q57F
VL: B15 VL with A31E, W32G, G33R, Y34W
notes: also called single-gene DNA ID 695

Kd [8]: 0.0304 nM
ELISA signal [9]: 0.86
NFkB IC50 [10]: 0.042 nM
B24: M429 (antibody, IgG1, V domains shown)
VH: B15 VH
VL: B15 VL with A31H, W32V, G33R, Y34W, V54L, R57K
notes: also called H227/L245
